{"source": "FireProtDB (doi:10.1021/bi990893b)", "parents": {"B1": {"name": "Cytochrome b5, P00171 (parent)", "chain": "MAEESSKAVKYYTLEEIQKHNNSKSTWLILHYKVYDLTKFLEEHPGGEEVLREQAGGDATENFEDVGHSTDARELSKTFIIGELHPDDRSKITKPSESIITTIDSNPSWWTNWLIPAISALFVALIYHLYTSEN"}}, "variants_of": "B1", "details": "Bos taurus, pH 7, Thermal, Absorbance, Sodium phosphate 100 mM, structure 1CYO, whole UniProt chain shown; for ddG of mutation (higher = less stable): 67.2 °C"}
{"variant": "V66E", "values": [{"measurement": "ddG of mutation (higher = less stable)", "result": 1.1, "unit": "kcal/mol"}, {"measurement": "Tm", "result": 63.2, "unit": "°C"}, {"measurement": "change of melting temperature, mutant - wild type (higher = more stable)", "result": -4, "unit": "°C"}, {"measurement": "unfolding enthalpy (van 't Hoff)", "result": 93.2, "unit": "kcal/mol"}]}
{"variant": "V66H", "values": [{"measurement": "ddG of mutation (higher = less stable)", "result": 1.63, "unit": "kcal/mol"}, {"measurement": "Tm", "result": 61.3, "unit": "°C"}, {"measurement": "change of melting temperature, mutant - wild type (higher = more stable)", "result": -5.9, "unit": "°C"}, {"measurement": "unfolding enthalpy (van 't Hoff)", "result": 88.2, "unit": "kcal/mol"}]}
{"variant": "V66K", "values": [{"measurement": "ddG of mutation (higher = less stable)", "result": 2.34, "unit": "kcal/mol"}, {"measurement": "Tm", "result": 58.5, "unit": "°C"}, {"measurement": "change of melting temperature, mutant - wild type (higher = more stable)", "result": -8.7, "unit": "°C"}, {"measurement": "unfolding enthalpy (van 't Hoff)", "result": 87, "unit": "kcal/mol"}]}
{"variant": "V66Y", "values": [{"measurement": "ddG of mutation (higher = less stable)", "result": 1.29, "unit": "kcal/mol"}, {"measurement": "Tm", "result": 62.5, "unit": "°C"}, {"measurement": "change of melting temperature, mutant - wild type (higher = more stable)", "result": -4.7, "unit": "°C"}, {"measurement": "unfolding enthalpy (van 't Hoff)", "result": 91.3, "unit": "kcal/mol"}]}
